The nature of data set [1]: Arginase specific activity. It is filed as biochemical. The settings on record: purified arginase sample, or after pegylation with mPEG-SPA MW 5,000 (mole ratio 1:50). The method, then: The purified Arginase as prepared using the methods described above was used for pegylation. Using the previous examples to illustrate the method, an arginase sample with specific activity=518 I.U./mg was dissolved in PBS buffer before carrying out pegylation.
The mPEG-SPA (cat. no. 2M4MOH01, Nektar, USA), MW 5,000 (5.82 g) was added into 555 ml of the purified Arginase (813.64 mg, 1.466 mg/ml) solution slowly in a 1 L beaker and then stirred for 2 h 40 min at room temperature (mole ratio of Arginase:mPEG-SPA=1:50). The mixture was then dialyzed extensively by ultra-dialysis against 15 L of PBS buffer using the F50(S) capillary dialyzer (Fresenius Medical Care, Bad Homburg, Germany) to remove all the unincorporated PEG. The mPEG-SPA uses amino groups of lysines and the N-terminus of the protein as the site of modification. In this example, the measured specific activity of the pegylated Arginase was as high as 592 I.U./mg.

Data set [2] is described as follows: ½-life determination of pegylated Arginase in vitro in human blood plasma. It is filed as in vitro ADME. To be noted: 37° C., 0.24 mg/ml pegylated Arginase. The method, then: As used herein, the term “half-life” (½-life) refers to the time that would be required for the concentration of the Arginase in human plasma in vitro, to fall by half.
Purified Arginase (1 mg) was dissolved in 1 ml of 125 mM borate buffer solution (pH 8.3) on ice. Activated PEG (mPEG-SPA, MW 5,000) (7.14 mg) was added into the protein solution slowly at a mole ratio of Arginase:PEG=1:50. The mixture was stirred on ice for 2.5 h.
Pegylated Arginase (305.6 μl) at a concentration of 1 mg/ml was added into human plasma (1 ml) and the final concentration of pegylated Arginase was 0.24 mg/ml. The mixture was divided into 20 aliquots in eppendorf tubes (65 μl mixture in each eppendorf tube) and then incubated at 37° C. A 1-2 μl portion of the mixture from each eppendorf tube was used to test the Arginase activity. In this example, the ½-life was determined to be approximately 3 days. It took about 3 days to reduce the relative activity from 100% to 50%.

B1: arginase: Recombinant human Arginase I with N-terminal 6xHis tag (SEQ ID NO: 3), produced in B. subtilis LLC101 (protein, listed as Homo sapiens)
chain: MHHHHHHMSAKSRTIGIIGAPFSKGQPRGGVEEGPTVLRKAGLLEKLKEQECDVKDYGDLPFADIPNDSPFQIVKNPRSVGKASEQLAGKVAQVKKNGRISLVLGGDHSLAIGSISGHARVHPDLGVIWVDAHTDINTPLTTTSGNLHGQPVSFLLKELKGKIPDVPGFSWVTPCISAKDIVYIGLRDVDPGEHYILKTLGIKYFSMTEVDRLGIGKVMEETLSYLLGRKKRPIHLSFDVDGLDPSFTPATGTPVVGGLTYREGLYITEEIYKTGLLSGLDIMEVNPSLGKTPEEVTRTVNTAVAITLACFGLAREGNHKPIDYLNPPK
modifications: N-terminal 6xHis tag
In the case of B1, the specific activity in data set [1] is on record as 518 I.U./mg.

B2: pegylated Arginase: Arginase I modified by pegylation with mPEG-SPA MW 5,000 to increase stability and minimize immunoreactivity (protein, UniProt P05089 1-322, looked up)
Arginase-1: MSAKSRTIGIIGAPFSKGQPRGGVEEGPTVLRKAGLLEKLKEQECDVKDYGDLPFADIPNDSPFQIVKNPRSVGKASEQLAGKVAEVKKNGRISLVLGGDHSLAIGSISGHARVHPDLGVIWVDAHTDINTPLTTTSGNLHGQPVSFLLKELKGKIPDVPGFSWVTPCISAKDIVYIGLRDVDPGEHYILKTLGIKYFSMTEVDRLGIGKVMEETLSYLLGRKKRPIHLSFDVDGLDPSFTPATGTPVVGGLTYREGLYITEEIYKTGLLSGLDIMEVNPSLGKTPEEVTRTVNTAVAITLACFGLAREGNHKPIDYLNPPK
modifications: mPEG-SPA 5 kDa
B2: the specific activity in data set [1] worked out at 592 I.U./mg. Further, the “½-life (time for relative Arginase activity to fall from 100% to 50%)” value in data set [2] is recorded as “approximately 3 days”.

The values are drawn from patent publication US20080292609A1, “Use of Arginase in Combination with 5FU and Other Compounds for Treatment of Human Malignancies” (priority 2007, published 2008).
